# Data reported in US20140004106A1.
# B1: Lead CXCR5 Antibody (humanized IgG4 anti-CXCR5 antibody) (antibody, V domains shown)
# VH: QVQLKESGPGLVAPSESLSITCTVSGFSLIDYGVNWIRQPPGKGLEWLGVIWGDGTTYYNPSLKSRLSISKDNSKSQVFLKVTSLTTDDTAMYYCARIVYWGQGTLVTVSA
# VL: DIVMTQAAPSVAVTPGASVSISCRSSKSLLHSSGKTYLYWFLQRPGQSPQLLIYRLSSLASGVPDRFSGSGSGTAFTLRISRVEAEDVGVYYCMQHLEYPYTFGGGTKLEIKR
# What was measured:
# [1] = target: 28mer peptide of the CXCR5 antigen; assay: Potency (Antigen ELISA); stored -20°C, initial
# [2] = target: 28mer peptide of the CXCR5 antigen; assay: Antigen-ELISA; standard run with LA_09_28D, T0
# [3] = target: 28mer peptide of the CXCR5 antigen; assay: Antigen-ELISA; PBS 155 mM pH 6.50, after mechanical stress 350 rpm 2.5 h
# [4] = target: 28mer peptide of the CXCR5 antigen; assay: Antigen-ELISA; Acetate 10 mM pH 5.00, after 1 week at +40°C
# [5] = target: 28mer peptide of the CXCR5 antigen; assay: Antigen-ELISA; Succinate 10 mM pH 6.00, T0
# [6] = target: 28mer peptide of the CXCR5 antigen; assay: Antigen-ELISA; standard run with LA_09_27D, T0
# [7] = target: 28mer peptide of the CXCR5 antigen; assay: Antigen-ELISA; histidine 10 mM prototype A, T0
# [8] = target: 28mer peptide of the CXCR5 antigen; assay: Antigen-ELISA; Histidine 10 mM pH 6.5, after 1 week at +40°C
# [9] = target: 28mer peptide of the CXCR5 antigen; assay: Antigen-ELISA; TRIS 10 mM pH 7.5, after 1 week at +40°C
# [10] = target: 28mer peptide of the CXCR5 antigen; assay: Antigen-ELISA; standard run with LA_09_28C, T0
# [11] = target: 28mer peptide of the CXCR5 antigen; assay: Antigen-ELISA; acetate 10 mM prototype D, T0
# [12] = target: 28mer peptide of the CXCR5 antigen; assay: Antigen-ELISA; histidine 10 mM prototype B, T0
# [13] = target: 28mer peptide of the CXCR5 antigen; assay: Antigen-ELISA; standard run with LA_09_27B, T0
# [14] = target: 28mer peptide of the CXCR5 antigen; assay: Potency (Antigen ELISA); stored +25°C, 3 months
# [15] = target: 28mer peptide of the CXCR5 antigen; assay: ELISA potency (binding); 100 mg/mL, Sucrose (60) + Mannitol (15), 7 days at 40°C
# [16] = target: 28mer peptide of the CXCR5 antigen; assay: ELISA potency (binding); 100 mg/mL, Lysine (30) + Mannitol (15), 7 days at 40°C
# [17] = target: 28mer peptide of the CXCR5 antigen; assay: Antigen-ELISA; Saline 150 mM pH 6.00, after 1 week at +40°C
# [18] = target: 28mer peptide of the CXCR5 antigen; assay: Antigen-ELISA; Citrate 10 mM pH 5.50, T0
# [19] = target: 28mer peptide of the CXCR5 antigen; assay: ELISA potency (binding); 100 mg/mL, Arginine (30), 7 days at 40°C
# [20] = target: 28mer peptide of the CXCR5 antigen; assay: Antigen-ELISA; PBS 155 mM, clear glass type I, 24 h +40°C
# [21] = target: 28mer peptide of the CXCR5 antigen; assay: Antigen-ELISA; PB 5 mM pH 7.00, after 1 week at +40°C
# [22] = target: 28mer peptide of the CXCR5 antigen; assay: Antigen-ELISA; Succinate 10 mM pH 6.00, after 1 week at +40°C
# [23] = target: 28mer peptide of the CXCR5 antigen; assay: ELISA potency (binding); 100 mg/mL, Trehalose (60) + Mannitol (15), 7 days at 40°C
# [24] = target: 28mer peptide of the CXCR5 antigen; assay: Antigen-ELISA; acetate 10 mM prototype A, repeated values in the 3 weeks -20°C
# [25] = target: 28mer peptide of the CXCR5 antigen; assay: Ag-ELISA; DS in PBS, 25°C, 3 months
# [26] = target: 28mer peptide of the CXCR5 antigen; assay: Antigen-ELISA; PBS 155 mM, light stress, 24 h
# [27] = target: 28mer peptide of the CXCR5 antigen; assay: Antigen-ELISA; Glycine 10 mM pH 7, T0
# [28] = target: 28mer peptide of the CXCR5 antigen; assay: Antigen-ELISA; Citrate 10 mM pH 7.00, after mechanical stress 350 rpm 2.5 h
# [29] = target: 28mer peptide of the CXCR5 antigen; assay: Antigen-ELISA; standard run with LA_09_004_4
# [30] = target: 28mer peptide of the CXCR5 antigen; assay: Antigen-ELISA; PBS 155 mM, amber glass type II, 24 h +40°C
# [31] = target: 28mer peptide of the CXCR5 antigen; assay: Antigen-ELISA; PB 5 mM pH 7.50, T0
# [32] = target: 28mer peptide of the CXCR5 antigen; assay: Antigen-ELISA; PB 5 mM pH 6.50, after 1 week at +40°C
# [33] = target: 28mer peptide of the CXCR5 antigen; assay: ELISA potency (binding); 100 mg/mL, Arginine (20) + Mannitol (15), T zero
# [34] = target: 28mer peptide of the CXCR5 antigen; assay: Antigen-ELISA; PB 10 mM pH 7.00, after 1 week at +40°C
# [35] = target: 28mer peptide of the CXCR5 antigen; assay: ELISA potency (binding); 100 mg/mL, Trehalose (60) + Mannitol (15), T zero
# [36] = target: 28mer peptide of the CXCR5 antigen; assay: Antigen-ELISA; citrate 10 mM prototype A, T0
# [37] = target: 28mer peptide of the CXCR5 antigen; assay: Antigen-ELISA; PBS 155 mM pH 7.00, after mechanical stress 350 rpm 2.5 h
# [38] = target: 28mer peptide of the CXCR5 antigen; assay: ELISA potency (binding); 100 mg/mL, Lysine (30) + NaCl (2), T zero
# [39] = target: 28mer peptide of the CXCR5 antigen; assay: Antigen-ELISA; standard run with LA_09_28B, T0
# [40] = target: 28mer peptide of the CXCR5 antigen; assay: ELISA potency (binding); 100 mg/mL, Arginine (30), T zero
# [41] = target: 28mer peptide of the CXCR5 antigen; assay: Potency (Antigen ELISA); stored -20°C, 3 months
# [42] = target: 28mer peptide of the CXCR5 antigen; assay: Antigen-ELISA; Histidine 10 mM pH 5.5, after 1 week at +40°C
# [43] = target: 28mer peptide of the CXCR5 antigen; assay: Potency (Antigen ELISA); stored +5°C, 1 month
binder,measurement,setting,value
B1,EC50 value (in comparison to reference),[1],75%
same,EC50 %,[2],100%
same,EC50 %,[3],79.3%
same,EC50 %,[4],102%
same,EC50 %,[5],112%
same,EC50 %,[6],100%
same,EC50 %,[7],174%
same,EC50 %,[8],175%
same,EC50 %,[9],184%
same,EC50 %,[10],100%
same,EC50 %,[11],91%
same,EC50 %,[12],118%
same,EC50 %,[13],100%
same,EC50 value (in comparison to reference),[14],96%
same,rel. potency [%],[15],243%
same,rel. potency [%],[16],297%
same,EC50 %,[17],80.9%
same,EC50 %,[18],112%
same,rel. potency [%],[19],143%
same,EC50 %,[20],131%
same,EC50 %,[21],68%
same,EC50 %,[22],126%
same,rel. potency [%],[23],266%
same,EC50 %,[24],112%
same,EC50 %,[25],108%
same,EC50 %,[26],72.3%
same,EC50 %,[27],127%
same,EC50 %,[28],101%
same,EC50 %,[29],100%
same,EC50 %,[30],90.1%
same,EC50 %,[31],176%
same,EC50 %,[32],77%
same,rel. potency [%],[33],117%
same,EC50 %,[34],109%
same,rel. potency [%],[35],156%
same,EC50 %,[36],112%
same,EC50 %,[37],50%
same,rel. potency [%],[38],130%
same,EC50 %,[39],100%
same,rel. potency [%],[40],160%
same,EC50 value (in comparison to reference),[41],84%
same,EC50 %,[42],81%
same,EC50 value (in comparison to reference),[43],105%
